Source: patent US20240209065A1

Tests used:
Test in all cases: cell-based or functional assay
[1] = biological target: S protein of authentic SARS-CoV-2 G614 virus (SARS-CoV-2) (UniProt P0DTC2)
[2] = biological target: S protein of RaTG13 on S-pseudotyped VSV (RaTG13 (clade 1b sarbecovirus))
[3] = biological target: S protein of Pangolin-GD on S-pseudotyped VSV (Pangolin-GD (clade 1b sarbecovirus))

Substance: DXP-604 IgG (antibody)
- IC50, microneutralization assay with authentic virus [1]: 0.3 nM
- IC50, S-pseudotyped VSV neutralization assay [2]: 0.01 nM
- IC50, S-pseudotyped VSV neutralization assay [3]: 0.05 nM
